The test has as its target T1, recombinant human angiotensin-converting enzyme 2 (human, UniProt Q9BYF1 18-740).
T1 construct: also called rhACE2; hACE2
Briefly: ELISA. Particulars: both partners purified. In general terms: In an ELISA, binding on a coated surface is turned into a signal by an enzyme label.

These results are taken from publication PMC10750099, “Mapping immunological and host receptor binding determinants of SARS-CoV spike protein utilizing the Qubevirus platform” (The Journal of Biological Chemistry, 2023).

T1 sequence (Q9BYF1 18-740): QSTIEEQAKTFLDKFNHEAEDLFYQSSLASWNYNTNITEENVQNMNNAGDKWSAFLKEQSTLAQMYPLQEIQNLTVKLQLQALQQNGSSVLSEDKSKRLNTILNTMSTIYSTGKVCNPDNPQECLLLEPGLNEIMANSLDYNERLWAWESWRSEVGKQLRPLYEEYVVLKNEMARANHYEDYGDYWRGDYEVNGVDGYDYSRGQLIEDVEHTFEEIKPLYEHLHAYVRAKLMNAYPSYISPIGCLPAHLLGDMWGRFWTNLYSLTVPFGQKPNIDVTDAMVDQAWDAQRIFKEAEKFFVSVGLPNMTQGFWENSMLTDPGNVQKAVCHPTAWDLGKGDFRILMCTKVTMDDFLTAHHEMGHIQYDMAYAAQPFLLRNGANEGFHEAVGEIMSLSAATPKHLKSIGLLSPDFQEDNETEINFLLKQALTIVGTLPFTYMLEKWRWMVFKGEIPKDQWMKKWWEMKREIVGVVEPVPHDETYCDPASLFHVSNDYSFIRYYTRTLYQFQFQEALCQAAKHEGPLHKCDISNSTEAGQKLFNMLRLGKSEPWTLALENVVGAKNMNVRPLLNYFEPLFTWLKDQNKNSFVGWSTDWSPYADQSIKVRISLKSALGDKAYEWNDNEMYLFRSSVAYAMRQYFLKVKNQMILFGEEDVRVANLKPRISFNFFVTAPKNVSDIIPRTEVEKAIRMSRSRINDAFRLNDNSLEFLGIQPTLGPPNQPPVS

B1: recombinant Qβ phage displaying the rhACE2-binding motif S437-492 of SARS-CoV spike fragment F6 on A1 (domain or fragment)
chain: NYKYRYLRHGKLRPFERDISNVPFSPDGKPCTPPALNCYWPLNDYGFYTTTGIGYQ
notes: also called GF6 motif (S437-492)
For the molecule B1, the binding result was “binds”.
